The text below walks through data of paper PMC9977310, “ABT1 modifies SMARD1 pathology via interactions with IGHMBP2 and stimulation of ATPase and helicase activity” (JCI Insight, 2023).

In series [1] the test system is IGHMBP2;ABT1 (Homo sapiens;Mus musculus). Briefly: MST. To be noted: MST: 100 nM NT-647-labeled IGHMBP2 (+/- 100 nM ABT1), RNA titrated from 1 uM (single) or 500 nM each (two RNAs), buffer, salt, pH and temperature not stated. ….
Series [2] deals with T1, immunoglobulin mu DNA binding protein 2 (IGHMBP2), human, full length, thioredoxin-6xHis fusion from pET32b (human, UniProt P38935 1-993, RED-Tris-NTA (NT-647) fluorescent label in the MST).
T1 sequence (looked up): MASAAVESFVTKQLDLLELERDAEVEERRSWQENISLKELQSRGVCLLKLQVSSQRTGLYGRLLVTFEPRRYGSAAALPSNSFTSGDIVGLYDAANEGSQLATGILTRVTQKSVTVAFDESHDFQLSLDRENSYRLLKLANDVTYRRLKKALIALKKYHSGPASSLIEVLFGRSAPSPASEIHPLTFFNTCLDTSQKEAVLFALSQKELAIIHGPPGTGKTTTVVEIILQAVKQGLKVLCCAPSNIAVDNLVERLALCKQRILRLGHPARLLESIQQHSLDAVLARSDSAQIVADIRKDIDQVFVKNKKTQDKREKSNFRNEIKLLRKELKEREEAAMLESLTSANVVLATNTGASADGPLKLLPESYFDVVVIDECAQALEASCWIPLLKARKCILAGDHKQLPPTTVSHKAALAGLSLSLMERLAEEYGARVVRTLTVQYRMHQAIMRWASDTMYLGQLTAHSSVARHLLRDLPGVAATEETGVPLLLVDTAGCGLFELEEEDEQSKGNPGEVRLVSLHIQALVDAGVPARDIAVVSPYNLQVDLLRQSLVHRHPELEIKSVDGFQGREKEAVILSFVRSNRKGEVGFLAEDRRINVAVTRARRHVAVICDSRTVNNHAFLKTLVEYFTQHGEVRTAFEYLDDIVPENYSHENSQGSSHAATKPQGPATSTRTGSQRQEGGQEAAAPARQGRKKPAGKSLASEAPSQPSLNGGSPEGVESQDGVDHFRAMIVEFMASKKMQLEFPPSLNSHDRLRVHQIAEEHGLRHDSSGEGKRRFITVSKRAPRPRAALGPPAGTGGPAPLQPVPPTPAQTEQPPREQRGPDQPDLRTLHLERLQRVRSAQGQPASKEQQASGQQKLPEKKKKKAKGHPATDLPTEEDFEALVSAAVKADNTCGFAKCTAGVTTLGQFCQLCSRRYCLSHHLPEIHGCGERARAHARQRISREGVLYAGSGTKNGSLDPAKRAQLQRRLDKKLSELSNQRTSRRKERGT
Briefly: cell-based or functional assay.

Series [3] concerns the target T1, immunoglobulin mu DNA binding protein 2 …. Briefly: MST; IGHMBP2 RED-Tris-NTA labelled, constant 100 nM; partner titrated (1 μM to 1.53 × 10^5 μM as printed); fit to a quadratic equation, MO.Affinity Analysis. The settings on record: both partners purified.
The target is the same in series [4]. Briefly: not stated; stoichiometry of ABT1 to IGHMBP2, Supplemental Figure 1; told in the paragraph on DLS, method not given. The settings on record: both partners purified.

Consider U3 snoRNA, for which, in series [1], the Kd (commonly the concentration at which binding is half-saturated) is 35 nM.

Regarding 5' ETS RNA + U3 snoRNA (annealed), the Kd in series [1] (100 nM IGHMBP2 + 100 nM ABT1, RNAs from 500 nM each) amounted to 28 nM.

Regarding 5' ETS RNA (47S pre-rRNA), the Kd in series [1] is greater than 697 nM.

B1: activator of basal transcription 1 (ABT1), mouse, full length, GST fusion from pGEX-6P1 (natural protein, UniProt Q9QYL7 1-269, looked up)
chain: MVKAGELVEQQKAAMEEEANAEAAEDQEEPEDTACSSSSKKKKKVVPGIVYLGHVPPRFRPLHVRNLLSAYGEVGRVFFQAEDHFVKRKKKAAAAAGGKKGAKYSKDYTEGWVEFRDKRVAKRVAASLHNTPMGARKRSPFRYDLWNLKYLHRFTWSHLSEHLAFERQVRRQRLRAEVAQAKRETDFYLRNVEQGQHFLAADGDATRPNSSWTFTQRPTEQEFRARKAARPGGRERARLANVEDQARSNRGLLAKIFGAPLPAESKEKP
notes: ABT1, mouse, full-length cDNA synthesized (GenScript), cloned into pGEX6P1; 31 kDa ABT1 + ~26 kDa GST, predicted ~57 kDa; Mouse ABT1 was tested against human IGHMBP2; No cleavage of GST is described; also called GST-ABT1; pGEX-ABT1; source: E. coli (BL21 and Rosetta strains used), purified on GST beads, eluted with reduced glutathione; bacterial cell lysate in the immunoprecipitation
Regarding B1, in series [2], the “ATPase activity of IGHMBP2 (100 nM) with increasing ABT1 up to 120 nM (malachite green, free phosphate), fold increase over IGHMBP2 alone” value came to 1.96 fold; the “helicase activity of IGHMBP2 (100 nM) with increasing ABT1 up to 120 nM (Cy3-labelled DNA substrate), fold increase over IGHMBP2 alone” value was 1.41 fold; the “nucleic acid unwinding rate of TP31-18mer duplex, 100 nM IGHMBP2 + 100 nM ABT1, 1-7 min (IGHMBP2 alone 1.141/min; printed as a 1.42-fold increase)” value amounted to 5.96 min⁻¹; the “rate of DNA substrate unwinding/nM protein, 100 nM IGHMBP2 with ABT1 20-100 nM, 7 min (IGHMBP2 alone 0.005/min; printed as 1.84-fold increased activity)” value worked out at 0.01 min⁻¹. The same molecule registered a Kd in series [3] of roughly 52 nM. In series [4], the stoichiometry N – broadly, a count of units in the complex or per binding partner – is roughly 1.
